# Like-named read-outs stand apart in the source and are kept apart here.
# Tests used:
# [1] = molecular target: T1, human CD3 on T-cell lines (CD3-expressing Jurkat cells; HUT78 cells) (human, UniProt P07766 23-207); experiment: flow cytometry, HUT78 cells
# T1 construct: On cells it stands in the CD3/TCR complex
# [2] = molecular target: T2, human CD3 epsilon (Acro Cat #CDE-H5223) (human, UniProt P07766 23-126); experiment: SPR (Biacore), antibody captured, human CD3 epsilon analyte
# T2 construct: Bought recombinant protein; also called rhCD3E
# Procedure: (§1) Anti-Fab or anti-Fc polyclonal antibodies were immobilized onto a CM5 chip (GE Life Sciences) using amine coupling chemistry (from Amine Coupling Kit, GE Life Sciences). The immobilization steps were carried out at a flow rate of 25 μl/min in 1×HBS-EP+ buffer (GE Life Sciences; 10× Stock diluted before use). The sensor surfaces were activated for 7 min with a mixture of NHS (0.05 M) and EDC (0.2 M). The Anti-Fab or Anti-Fc antibodies were injected over all 4 flow cells at a concentration of 25 μg/mL in 10 mM sodium acetate, pH 4.5, for 7 min. Ethanolamine (1 M, pH 8.5) was injected for 7 min to block any remaining activated groups.
# (§2) Off-rate and kinetic binding experiments were performed at 25° C. using 1×HBS-EP+ buffer. Test and control antibodies were injected over the anti-Fab or anti-Fc surface at concentrations of 5-10 μg/mL for 12 seconds at a flow rate of 10 μL/min on flow cells 2, 3 and 4, followed by a buffer wash for 30 seconds at the same flow rate. […] After capturing ligand (antibody) on the anti-Fc or anti-Fab surface, the analyte (human CD3 epsilon, Acro Cat #CDE-H5223) was bound for 180 seconds, followed by a 600 second dissociation phase at a flow rate of 50 μL/min. Between each ligand capture and analyte binding cycle, regeneration was carried out using two injections of 10 mM Glycine pH 2.0 for 30 seconds at 30 μL/min, followed by a 30 second buffer wash step.
# (§3) The data was fit with the Biacore T200 Evaluation software, using a 1-1 Langmuir binding model. KD (affinity, nM) was determined as a ratio of the kinetic rate constants calculated from the fits of the association and dissociation phases.
# [3] = molecular target: T1, human CD3 on T-cell lines …; experiment: flow cytometry, HUT78 cells; remark: listed apart in the source
# [4] = molecular target: T2, human CD3 epsilon (Acro Cat #CDE-H5223); experiment: SPR (Biacore), antibody captured, human CD3 epsilon analyte; remark: listed apart in the source
# Procedure: as §1, §2, §3
# T2 sequence (P07766 23-126 limits assumed): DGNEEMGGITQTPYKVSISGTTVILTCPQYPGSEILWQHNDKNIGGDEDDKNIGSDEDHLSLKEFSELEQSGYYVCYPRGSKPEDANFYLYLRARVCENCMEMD
# T1 sequence (P07766 23-207 limits assumed): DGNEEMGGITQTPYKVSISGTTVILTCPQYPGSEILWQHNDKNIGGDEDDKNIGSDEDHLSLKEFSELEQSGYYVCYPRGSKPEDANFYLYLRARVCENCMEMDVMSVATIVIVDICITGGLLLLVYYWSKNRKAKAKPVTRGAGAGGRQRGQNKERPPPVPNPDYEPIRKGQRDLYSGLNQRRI
Bmax (MFI) [1],Kd [1],kon [2],HUT78 Bmax [3],Kd [3],Kd [4],koff [4],kon [4],Binder
–,–,–,1190,62.4 nM,5.07 nM,0.000441 s⁻¹,87000 M⁻¹ s⁻¹,"SRP 2037-B10 Y55D/R97D (antibody, human IgG1, lambda, V domains shown, human IgG1, lambda) VH: EVQLVESGGGLVKPGGSLRLSCAASGFTFNKYAMNWVRQAPGKGLEWVARIRTKDNNYATYYADSVKDRFTISRDDSKNTAYLQMNSLKTEDTAVYYCVRHGNFGNSYISYWAYWGQGTPVTVSS VL: QTVVTQEPSLTVSPGGTVTLTCGSSTGAVTSGYYPNWLQQKPGQAPRGLIGGTKFLAPGTPARFSGSLLGGKAALTLSGVQPEDEAEYYCALWYSNDWVFGGGTQLTVTG"
–,–,–,1800,38.1 nM,15.8 nM,0.000474 s⁻¹,30100 M⁻¹ s⁻¹,"SRP 2037-B10 S107D/R97D (antibody, human IgG1, lambda, V domains shown, human IgG1, lambda) VH: EVQLVESGGGLVKPGGSLRLSCAASGFTFNKYAMNWVRQAPGKGLEWVARIRTKYNNYATYYADSVKDRFTISRDDSKNTAYLQMNSLKTEDTAVYYCVRHGNFGNDYISYWAYWGQGTPVTVSS VL: QTVVTQEPSLTVSPGGTVTLTCGSSTGAVTSGYYPNWLQQKPGQAPRGLIGGTKFLAPGTPARFSGSLLGGKAALTLSGVQPEDEAEYYCALWYSNDWVFGGGTQLTVTG"
–,–,–,772,312 nM,–,–,–,"SRP 2037-B10 Y61D/LC5 (antibody, human IgG1, kappa, V domains shown, human IgG1, kappa) VH: EVQLVESGGGLVKPGGSLRLSCAASGFTFNKYAMNWVRQAPGKGLEWVARIRTKYNNYATDYADSVKDRFTISRDDSKNTAYLQMNSLKTEDTAVYYCVRHGNFGNSYISYWAYWGQGTPVTVSS VL: DTQVTQSPSLSASVGDRVTITCGSSTGAVTSGYYPNWLQQKPGQAPRGLIGGTKFLAPGVPSRFSGSGSGTDFTLTISSLQPEDFATYYCALWYSNRWVFGGGTKVEIKR"
–,–,–,442,174 nM,–,–,–,"SRP 2037-B10 Y55D/LC5 (antibody, human IgG1, kappa, V domains shown, human IgG1, kappa) VH: EVQLVESGGGLVKPGGSLRLSCAASGFTFNKYAMNWVRQAPGKGLEWVARIRTKDNNYATYYADSVKDRFTISRDDSKNTAYLQMNSLKTEDTAVYYCVRHGNFGNSYISYWAYWGQGTPVTVSS VL: DTQVTQSPSLSASVGDRVTITCGSSTGAVTSGYYPNWLQQKPGQAPRGLIGGTKFLAPGVPSRFSGSGSGTDFTLTISSLQPEDFATYYCALWYSNRWVFGGGTKVEIKR"

# Further lines, the binder ahead of its results:
Binder,Bmax (MFI) [1],Kd [1],kon [2],HUT78 Bmax [3],Kd [3],Kd [4],koff [4],kon [4]
"2037-B10_Lc-W93D (antibody, V domains shown, human IgG1, lambda; also called SRP 2037 W93D; 2037-B10 VL-W93D) VH: not shown VL: QTVVTQEPSLTVSPGGTVTLTCGSSTGAVTSGYYPNWLQQKPGQAPRGLIGGTKFLAPGTPARFSGSLLGGKAALTLSGVQPEDEAEYYCALDYSNRWVFGGGTQLTVTG",88 MFI,21.9 nM,7720 M⁻¹ s⁻¹,–,–,–,–,–
"SRP 2037-B10 F104D/R97D (antibody, human IgG1, lambda, V domains shown, human IgG1, lambda) VH: EVQLVESGGGLVKPGGSLRLSCAASGFTFNKYAMNWVRQAPGKGLEWVARIRTKYNNYATYYADSVKDRFTISRDDSKNTAYLQMNSLKTEDTAVYYCVRHGNDGNSYISYWAYWGQGTPVTVSS VL: QTVVTQEPSLTVSPGGTVTLTCGSSTGAVTSGYYPNWLQQKPGQAPRGLIGGTKFLAPGTPARFSGSLLGGKAALTLSGVQPEDEAEYYCALWYSNDWVFGGGTQLTVTG",–,–,–,2710,126 nM,6.99 nM,0.000115 s⁻¹,16400 M⁻¹ s⁻¹
"SRP 2037-B10 F104D/LC5 (antibody, human IgG1, kappa, V domains shown, human IgG1, kappa) VH: EVQLVESGGGLVKPGGSLRLSCAASGFTFNKYAMNWVRQAPGKGLEWVARIRTKYNNYATYYADSVKDRFTISRDDSKNTAYLQMNSLKTEDTAVYYCVRHGNDGNSYISYWAYWGQGTPVTVSS VL: DTQVTQSPSLSASVGDRVTITCGSSTGAVTSGYYPNWLQQKPGQAPRGLIGGTKFLAPGVPSRFSGSGSGTDFTLTISSLQPEDFATYYCALWYSNRWVFGGGTKVEIKR",–,–,–,523,226 nM,–,–,–
"SRP 2037-B10 S107D/LC5 (antibody, human IgG1, kappa, V domains shown, human IgG1, kappa) VH: EVQLVESGGGLVKPGGSLRLSCAASGFTFNKYAMNWVRQAPGKGLEWVARIRTKYNNYATYYADSVKDRFTISRDDSKNTAYLQMNSLKTEDTAVYYCVRHGNFGNDYISYWAYWGQGTPVTVSS VL: DTQVTQSPSLSASVGDRVTITCGSSTGAVTSGYYPNWLQQKPGQAPRGLIGGTKFLAPGVPSRFSGSGSGTDFTLTISSLQPEDFATYYCALWYSNRWVFGGGTKVEIKR",–,–,–,404,86.4 nM,–,–,–

# Source: patent US20240124585A1 (SUTRO BIOPHARMA, published 2024)
